Data as given in patent US9120851B2, “Human antibodies to human angiopoietin-like protein 4” (Regeneron Pharmaceuticals, Inc., priority 2009, dated 2015).
Changes are numbered by the printed parent chain.

B1: H1H268P: anti-hANGPTL4 antibody, hIgG1 isotype, HCVR/LCVR SEQ ID NOs 42/44 (antibody, V domains shown)
VH: QVQLQESGAGLLKPSETLSLTCTVYGGSFSIHHWTWIRHPPGKGLEWIGEINHRGSTNYNPSLKSRVTISIDTSKNQFSLKLSAVTAADTAVYYCARGLRFLDWLSSYFDYWGQGTLVTVSS
VL: DIQMTQSPSSLSASVGDRVTITCRASQGISDYLAWYQQKPGKVPNLLIYAASALQSGVPSRFSGSGSGTDFTLTISSLQPEDVATYYCQNYNTAPLTFGGGTKVEIK
B2: H4H268P2: IgG4 version of H1H268P with a single amino acid substitution in framework region 1, HCVR/LCVR SEQ ID NOs 487/44 (antibody, V domains shown)
VH: B1 VH with E6Q
VL: B1 VL
modifications: IgG4 constant region
B3: H1H284P: anti-hANGPTL4 antibody, hIgG1 isotype, HCVR/LCVR SEQ ID NOs 90/92 (antibody, V domains shown)
VH: QVQLVESGGGVVQPGRSLRLSCAASGFTFSSYGMHWVRQAPGKGLEWMAVISFDGGNKNNADSVKGRFTISRDNSKNTLYLQMNSLRAEDTAVYYCAKEGDRSGHPYFYYYGLDVWGQGTTVTVS
VL: DIQLTQSPSFLSASVGDRVTITCWASQGISSYLAWYQQKPGKAPKLLIYAASTLQSGVPSRFSGSGSETEFTLTISSLQPEDFATYYCQQLHSYPLTFGGGTKVEIK

Experiments:
MfANGPTL4(1-130)-His = assay: BIACORE, full mAb or Fab over amino-coupled MfANGPTL4(1-130)-His; assay type: binding, cynomolgus monkey; conditions: for Response bound at 50 nM mAb or Fab: amino-coupled 1,028 RU
MfANGPTL4(1-130)-His, sequence (as listed by the source): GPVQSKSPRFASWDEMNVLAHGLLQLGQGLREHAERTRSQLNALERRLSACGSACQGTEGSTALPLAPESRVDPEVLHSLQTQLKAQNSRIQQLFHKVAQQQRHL
Description: Briefly, various concentrations (3.125 nM-100 nM) of anti-hANGPTL4 antibodies (i.e., H1H268 Fab, entire H1H268 mAb, H1H284 Fab, and entire H1H284 mAb) were injected over a low density anti-mFc captured hANGPTL4(26-148)-mFc (˜68±4 RU) surface, or the surface of amino-coupled hANGPTL4(26-406)-His (R&D Systems) (450 RU) or amino-coupled cynomolgus monkey N-terminal region (amino acid residues 1-130 of SEQ ID NO:490) expressed with an C-terminal hexa-histidine tag (MfANGPTL4(1-130)-His) (1,028 RU). Kinetic analysis was performed to measure ka and kd, and KD values and half-life of antigen/antibody complex dissociation were calculated. The results are shown in Table 4 (H1H268P) and Table 5 (H1H284P).

[1] = Serum human Ab levels in humanized ANGPTL4 mice, ELISA; assay type: in vivo, mouse; parameters: unit not given here; conditions: mean±SEM
Description: The effect of anti-hANGPTL4 antibodies H1H268P and H1H284P on serum TG levels was determined in mice expressing the ANGPTL4 protein containing the human N-terminal coil-coil region (“humanized ANGPTL4 mice”). The humanized ANGPTL4 mouse was made by replacing first three exons of the mouse Angptl4 gene (the N terminal coil-coil region) with the corresponding human N-terminal coil-coil ANGPLT4 sequence in C57BL6/129 (F1H4) embryonic stem cells. After germ line transmission was established, heterozygous mice (ANGPTL4hum/+) were bred together to generate homozygous mice [ANGPTL4hum/hum or hANGPTL4(+/+)] on a C57BL6 background. Humanized ANGPTL4 mice were pre-bled 7 days before (day −7) the experiment and put into groups of six mice each for each antibody tested. Antibodies (H1H268P, H1H284P and isotype-matched (hIgG1) control with no known cross-reactivity to mouse antigens) were administered at 10 mg/kg dose by subcutaneous injection. Mice were bled after 4 hours of fasting at days 1, 4, 7 and 11 after antibody injection; and serum TG levels were determined by ADVIA® 1800 Chemistry System (Siemens). Average TG levels were calculated for each time point for each antibody.
Levels of circulating anti-hANGPTL4 antibodies (“serum human Ab”) were also determined using a standard ELISA assay. Briefly, plates were coated with a goat anti-human Fc antibody (Sigma-Aldrich) to capture serum human Ab. Serum was then added to the plates and captured anti-hANGPTL4 antibodies were detected by chemiluminescence using a horseradish peroxidase (HRP)-conjugated goat anti-human IgG antibody (Sigma-Aldrich).

[2] = test system: humanized ANGPTL4×ApoE null mice; assay: Serum TG levels in humanized ANGPTL4 x ApoE null mice; assay type: in vivo, mouse
Description: The effect of H4H268P2 on circulating TG levels was further studied in humanized ANGPTL4 mice crossed to ApoE null mice. The ApoE null mouse model is known as a highly atherogenic and hyperlipidemic model with the majority of cholesterol and TG circulating in VLDL particles due to impaired VLDL remnant clearance. Humanized ANGPTL4×ApoE null mice were pre-bled 7 days before the experiment and put into 2 groups of six mice each. Antibodies H4H268P2 and Control Ab were administered at 10 mg/kg by subcutaneous injection. Mice were bled after 4 hours of fasting on days 1, 4, 7, 11 and 17 after antibody injection and TG levels were determined in the serum by ADVIA® 1800 Chemistry System (Siemens). TG reductions shown in FIG. 4 are expressed as a percent of TG levels compared to Control Ab.

[3] = test system: obese rhesus monkeys (Macaca mulatta); assay: Phase I pilot PK/PD study in obese rhesus monkeys; assay type: in vivo, rhesus monkey (Macaca mulatta)
Description: Phase I: In a pilot non-GLP pharmacokinetics/pharmacodynamic (PK/PD) study, H4H268P2 and H4H284P were administered as a single bolus intravenous (IV) injection, to obese rhesus monkeys (Macaca mulatta). Rhesus monkeys were selected because this species is closely related, both phylogenically and physiologically, to humans and is a species commonly used for nonclinical toxicity evaluations. Obese monkeys that had been on a high fat diet for greater than 6 months were selected because they typically display moderately elevated TG levels (i.e., mean >100 mg/dL; hyper-TG). Eight confirmed healthy, male monkeys were acclimated and assigned to the study for baseline assessment for 7 days prior to dosing. All animals received a vehicle (10 mM histidine, pH 6) IV infusion on Day −5, after which four of them received H4H268P2 and another four H4H284P at 10 mg/kg IV on day 0.
Serum samples were collected from the baseline period through day 35 post-dosing and assessed for serum lipid levels by ADVIA® 1800 Chemistry System (Siemens). The average baseline for each animal was determined based on the samples taken on Days −7, −5 and 0. […] Thus the data analysis was done with 3 animals in each group. Percent (%) changes of serum TG levels from the baseline were determined for each animal and averaged for each Ab group.

[4] = day 1 after injection, 10 mg/kg s.c.
[5] = day 4 after injection, 10 mg/kg s.c.
[6] = day 7 after injection, 10 mg/kg s.c.
[7] = day 11 after injection, 10 mg/kg s.c.

| kd (MfANGPTL4(1-130)-His; pH 5.75, 25° C.) [s⁻¹] | kd (MfANGPTL4(1-130)-His; pH 7.2, 25° C.) [s⁻¹] | Molecule | ka (MfANGPTL4(1-130)-His; pH 5.75, 25° C.) [M⁻¹ s⁻¹] | Response bound at 50 nM mAb or Fab (MfANGPTL4(1-130)-His; pH 5.75, 25° C.) | ka (MfANGPTL4(1-130)-His; pH 7.2, 25° C.) [M⁻¹ s⁻¹] | Response bound at 50 nM mAb or Fab (MfANGPTL4(1-130)-His; pH 7.2, 25° C.) | Serum Human Antibody [1, 4] | Serum Human Antibody [1, 5] | Serum Human Antibody [1, 6] | Serum Human Antibody [1, 7] | Serum Human Antibody ([1]; day −7 (pre-bleed)) | TG reduction compared to Control Ab ([2]; all 17 days, 10 mg/kg s.c.) | greatest TG reduction compared to Control Ab ([2]; day 7, 10 mg/kg s.c.) [%] | additional lipids, such as LDL-C and HDL-C, in words ([3]; 10 mg/kg IV) | total-C, in words ([3]; 10 mg/kg IV) | injection site reactions or other adverse effects ([3]; 10 mg/kg IV, any time point after infusion) | maximal reduction of serum TG from baseline ([3]; day 4 post-dosing, 10 mg/kg IV, three mildly hyper-TG animals) [%] | fasting TG's or any other lipid parameters, in words ([3]; single obese animal with low TG levels, 10 mg/kg IV) | mean serum TG levels ([3]; until approximately Day 25, 10 mg/kg IV, three mildly hyper-TG animals) [mg/dL] |
| --- | --- | --- | --- | --- | --- | --- | --- | --- | --- | --- | --- | --- | --- | --- | --- | --- | --- | --- | --- |
| 8.24e-05 | 4.76e-05 | B1 | 107000 | 583 | 392000 | 279 | 24130 ± 1788 | 16557 ± 1369 | 12586 ± 1176 | 6106 ± 1111 | 2.92 ± 2.92 | – | – | – | – | – | – | – | – |
| – | – | B2 | – | – | – | – | – | – | – | – | – | more than 42% | ~50 | Moderate effects | unchanged | No injection site reactions or other adverse effects were observed | 57 | did not yield any significant effect | ≤ 100 |
| 8.42e-05 | 5.83e-05 | B3 | 1.55e+06 | 804 | 467000 | 414 | 16459 ± 1455 | 9103 ± 767 | 2428 ± 525 | 135 ± 38 | 3.02 ± 2.38 | – | – | – | – | – | – | – | – |
